The series deals with the molecule itself. The series is described as follows: crystal structure.

B1: SpeY-E269A/E270A double mutant (enzyme, Streptomyces spectabilis ATCC 27741)
chain: MSVRLADGKVRNPEGIEVNASLQCNMRCQSCAHLSPLYRRENADPAEIHDTLSVLARSYHASYAKIMGGEPLLHPDVVGLIEAVRATGISDTVLVATNGTLLHRATERFWQAVDSLEISVYPSRMIAPEEIERYRVLAREHGVSLLVNYYGHFRAVYSESGTDAPDLVRDVFDTCKLAHFWNSHTVYDGWLYRCPQSVFMPRQLRDGGWDPRVDGLRIEDDPAFLERLHRFLTADDPLRACRNCLGSVGKLHPHQELPRAGWQVTEQLAALVDYPFLKVCKDDITADDGCVERSLSAPVGGA
In the case of B1, the binding result is recorded as “binds”.

For the origin of these results see publication PMC9204835 (Journal of the American Chemical Society, 2022).
